The series has as its system Oc1ccc2ccc3cccc4ccc1c2c34. Briefly: purified protein, by the assay type. To be noted: saturating PAPS (500 μM), 25.0 °C.

Description: Covalent Tagging of SULT1A3 Cys Constructs. Labeling of the SULT1A3 Cys constructs was performed as described previously (17,18,21). Briefly, 3-maleimido-PROXYL (spin label) or N-cyclohexylmaleimide (diamagnetic control) was added to an enzyme containing solution at 20-fold excess over reactive Cys. Unreacted Cys was monitored using DNTB (17,18,21); reactions were considered complete when >98% of the Cys was labeled. Reaction conditions: SULT1A3 (50 μM, monomer), 3-maleimido-PROXYL or N-cyclohexylmaleimide (1.0 mM), PAP (0.50 mM), KPO4 (50 mM), pH 7.5, 4±2° C. To prepare samples for NMR, reaction mixtures were dialyzed three times against 40 volumes of PAP (0.50 mM), KPO4 (50 mM), pD 7.4, D2O (>95%), 4±2° C.
Initial-Rate Studies. Initial-rate parameters for the labeled or mutant SULT1A3 constructs were determined using a previously described 1-HP assay (25). […] Reactions were monitored via fluorescence change associated with the conversion of 1-HP to 1-HP-S (λex=325 nm, λem=370 nm). Keq for the 1-HP sulfonation reaction is −250. Given the reaction conditions outlined above, ≥99% of 1-HP is converted to 1-HP-S, and ˜0.4% of PAPS is converted to PAP at equilibrium. […] Reaction progress curves were analyzed to obtain initial-rate parameters as described previously (26,27).
Inhibition studies. Inhibition parameters were determined under conditions identical to those described above (see, Initial-Rate Studies) except that [1-HP] was increased to 5.0 μM (˜61×Km) and inhibitor concentration was varied between 0.20-20×Ki. Ki was obtained using a least-squares fit to the following partial inhibition equation (25,28): v=kcat·(Ki+(1/kcat inh)·[I])/(Ki+[I]), where kcat inh is enzyme turnover at saturating substrates and allosteric inhibitor.

In the case of “SULT1A3 spin-labeled at Cys 234 (Homo sapiens; K234C)”, under “other: spin label at Cys 234”, the Km is 84 (3) nM and the kcat (commonly the maximal rate divided by the concentration of active sites) stood at 1.82 s⁻¹.

As for “SULT1A3 spin-labeled at Cys 116 (Homo sapiens; Q116C)”, under “other: spin label at Cys 116”, the Km is on record as 87 (3) nM and the catalytic constant (kcat) came out at 1.83 s⁻¹.

On to “SULT1A3 spin-labeled at Cys 198 (Homo sapiens; E198C)”, for which, where the note is “other: spin label at Cys 198”, the Km was 88 (2) nM and the kcat was found to be 1.8 s⁻¹.

The values are drawn from US12291504B2, “Small molecule inhibition of sulfotransferase SULT1A3” (University of Pittsburgh—Of the Commonwealth System of …, priority 2018, dated 2025).
